Test results published in US20210130474A1 (DRAGONFLY THERAPEUTICS, published 2021).
Changes are numbered by the printed parent chain.

B1: A49-TriNKET-CAIX (ADI-27749 and a CAIX-binding domain) (bispecific antibody, V domains shown)
VH 1: EVQLVESGGGLVKPGGSLRLSCAASGFTFSSYSMNWVRQAPGKGLEWVSSISSSSSYIYYADSVKGRFTISRDNAKNSLYLQMNSLRAEDTAVYYCARGAPMGAAAGWFDPWGQGTLVTVSS
VL 1: DIQMTQSPSSVSASVGDRVTITCRASQGISSWLAWYQQKPGKAPKLLIYAASSLQSGVPSRFSGSGSGTDFTLTISSLQPEDFATYYCQQGVSFPRTFGGGTKVEIK
VH 2: QVELVESGGGLVQPGGSLRLSCAASGFTFSSYGMSWVRQAPGKGLEWVSGISSLGSTTYYADSVKGRFTISRDNSKNTLYLQMNSLRAEDTAVYYCARTGSPGTFMHGDHWGQGTLVTVSS
VL 2: DIQMTQSPSSLSASVGDRVTITCRASQDINNYLSWYQQKPGKAPKLLIYGASNLQSGVPSRFSGSGSGTDFTLTISSLQPEDFAVYYCQQYYGRPTTFGQGTKVEIK
B2: A44-TriNKET-CAIX (ADI-27744 and a CAIX-binding domain) (bispecific antibody, V domains shown)
VH 1: not shown
VL 1: B1 VL 1 with S30D, F94Y
VH 2: B1 VH 2
VL 2: B1 VL 2
B3: E79-TriNKET-CAIX (ADI-29379 and a CAIX-binding domain) (bispecific antibody, V domains shown)
VH 1: QVQLVQSGAEVKKPGASVKVSCKASGYTFTSYYMHWVRQAPGQGLEWMGIINPSGGSTSYAQKFQGRVTMTRDTSTSTVYMELSSLRSEDTAVYYCARGAPNYGDTTHDYYYMDVWGKGTTVTVSS
VL 1: EIVMTQSPATLSVSPGERATLSCRASQSVSSNLAWYQQKPGQAPRLLIYGASTRATGIPARFSGSGSGTEFTLTISSLQSEDFAVYYCQQYDDWPFTFGGGTKVEIK
VH 2: B1 VH 2
VL 2: B1 VL 2
B4: F47-TriNKET-CAIX (ADI-29447 and a CAIX-binding domain) (bispecific antibody, V domains shown)
VH 1: QVQLQQWGAGLLKPSETLSLTCAVYGGSFSGYYWSWIRQPPGKGLEWIGEIDHSGSTNYNPSLKSRVTISVDTSKNQFSLKLSSVTAADTAVYYCARARGPWSFDPWGQGTLVTVSS
VL 1: DIQMTQSPSTLSASVGDRVTITCRASQSISSWLAWYQQKPGKAPKLLIYKASSLESGVPSRFSGSGSGTEFTLTISSLQPDDFATYYCQQYDTFITFGGGTKVEIK
VH 2: B1 VH 2
VL 2: B1 VL 2

Columns and labels:
[1] = biological target: T1, CAIX expressed on human renal cell carcinoma line A498 (human, UniProt Q16790 38-459); experiment: cell-based or functional assay
[2] = biological target: T1, CAIX expressed on human renal cell …; experiment: flow cytometry on A498 cells, MFI fold over background
From the text: Human renal cell carcinoma line A498 expressing CAIX was used to assay the binding of TriNKETs to the tumor associated antigen CAIX.

Binder | specific lysis of A498 target cells by rested KHYG-1 cells (DELFIA cytotoxicity assay), increase over co-culture without TriNKET [1] [%] | binding result [2]
B1 | ~20 | –
B2 | ~20 | –
B3 | ~20 | –
B4 | – | binds
